Patent publication US7807620 (TRUSTEES OF COLUMBIA UNIVERSITY IN THE CITY OF NEW YORK, dated 2010)

Target: T1, recombinant native hFSH receptor (human, UniProt P23945 18-695)
T1 construct: whole, on cells
T1 sequence (looked up): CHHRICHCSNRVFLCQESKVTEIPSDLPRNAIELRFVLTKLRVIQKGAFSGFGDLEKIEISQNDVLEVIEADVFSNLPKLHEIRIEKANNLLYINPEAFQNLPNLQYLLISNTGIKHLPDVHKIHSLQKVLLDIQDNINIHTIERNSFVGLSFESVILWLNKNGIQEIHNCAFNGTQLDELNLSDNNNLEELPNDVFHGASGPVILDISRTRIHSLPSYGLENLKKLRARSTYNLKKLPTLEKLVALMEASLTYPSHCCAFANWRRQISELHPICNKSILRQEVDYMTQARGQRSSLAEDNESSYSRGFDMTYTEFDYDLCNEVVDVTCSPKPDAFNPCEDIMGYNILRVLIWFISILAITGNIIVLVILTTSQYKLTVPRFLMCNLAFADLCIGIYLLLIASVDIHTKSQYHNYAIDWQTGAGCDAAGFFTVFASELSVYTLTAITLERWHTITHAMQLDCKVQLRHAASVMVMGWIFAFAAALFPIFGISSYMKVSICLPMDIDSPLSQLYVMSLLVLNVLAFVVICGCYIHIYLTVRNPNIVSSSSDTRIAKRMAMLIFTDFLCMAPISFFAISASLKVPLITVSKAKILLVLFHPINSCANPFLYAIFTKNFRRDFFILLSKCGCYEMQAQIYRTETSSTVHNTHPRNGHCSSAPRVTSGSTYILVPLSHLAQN
Test: conclusion drawn from the cAMP bioassay on Y-1 cells expressing the FSH receptor; no direct binding assay described
Description: Bioactivity of the hFSH analogues was evaluated using Y-1 cells transfected with the FSH receptor. Y-1 cell cultures were mixed with the fusion protein and native pituitary hFSH (control) at varying concentrations and media was assayed for cAMP activity as described in Bouloux et al, 2001.
Figure 8: FIG. 8: In vitro bioassay of hormone activity. cAMP concentration (fmol/ml) was quantitated in Y1 cells expressing the FSH receptor after treatment with the indicated amount of either pituitary FSH (PFSH) or the FSH analogue, β-hFSH-CTP-α-hFSH (rFSH-CTP).
The bioactivity of the β-hFSH-CTP-α analogue was first assessed by an assay of hFSH receptor activity. In this assay, a recombinant native hFSH receptor is expressed in a suitable host cell and cAMP induction is measured following incubation with hormone (Lindau-Shepard et al, 2001).

binding result: binds
B1: β-hFSH-CTP-α-hFSH (ligand)
chain: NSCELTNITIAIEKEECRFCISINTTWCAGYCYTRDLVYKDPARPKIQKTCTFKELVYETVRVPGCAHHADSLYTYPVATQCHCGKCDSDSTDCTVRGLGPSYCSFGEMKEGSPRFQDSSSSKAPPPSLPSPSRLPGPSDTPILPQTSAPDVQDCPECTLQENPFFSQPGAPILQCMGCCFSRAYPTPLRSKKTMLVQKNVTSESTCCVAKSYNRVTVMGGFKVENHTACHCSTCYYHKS
notes: Secreted from CHO-K1 cells and purified on an A201 column; also called β-hFSH-CTP-α analogue; β-hFSH-CTP-α fusion protein
